This note sets out measurements from paper PMC8092299, “Bifunctional Malic/Malolactic Enzyme Provides a Novel Mechanism for NADPH-Balancing in Bacillus subtilis” (mBio, 2021).

The target in data set [1] is T1, MaeB (Escherichia coli, UniProt P76558).
T1 construct: His-tagged from ASKA His tag collection library, overexpressed in E. coli, Ni-NTA purified, tag kept
T1 sequence (P76558 1-759): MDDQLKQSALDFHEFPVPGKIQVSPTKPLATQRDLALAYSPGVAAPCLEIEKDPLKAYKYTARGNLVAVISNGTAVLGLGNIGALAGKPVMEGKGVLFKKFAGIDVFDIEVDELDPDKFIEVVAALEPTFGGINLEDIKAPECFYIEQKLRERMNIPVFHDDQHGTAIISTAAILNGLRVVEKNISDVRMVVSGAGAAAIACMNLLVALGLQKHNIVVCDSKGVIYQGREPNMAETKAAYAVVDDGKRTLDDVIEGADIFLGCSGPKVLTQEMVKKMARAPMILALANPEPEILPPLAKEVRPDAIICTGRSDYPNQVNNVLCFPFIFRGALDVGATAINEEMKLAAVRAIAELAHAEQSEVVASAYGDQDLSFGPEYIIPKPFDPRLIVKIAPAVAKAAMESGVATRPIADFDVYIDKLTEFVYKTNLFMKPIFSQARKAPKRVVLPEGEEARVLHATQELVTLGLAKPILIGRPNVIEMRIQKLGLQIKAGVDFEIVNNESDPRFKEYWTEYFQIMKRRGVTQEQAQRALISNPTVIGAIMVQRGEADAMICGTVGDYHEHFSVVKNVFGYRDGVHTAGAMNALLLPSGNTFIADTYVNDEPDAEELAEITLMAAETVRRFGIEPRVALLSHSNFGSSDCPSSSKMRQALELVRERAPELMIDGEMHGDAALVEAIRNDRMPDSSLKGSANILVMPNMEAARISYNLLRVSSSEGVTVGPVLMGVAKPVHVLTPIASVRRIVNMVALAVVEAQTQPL
Put plainly: flow-injection TOF MS, lactate formation (malolactic activity). The note with it: NAD+, malate, pyruvate and 1 mM NADPH; 10 mM potassium phosphate pH 7.4, 2.5 mM MgCl2, 50 mM KCl, 1 mM NaHCO3, room temperature. It is filed as biochemical.

Substrate in data set [2]: NC(=O)C1=CN([C@@H]2O[C@H](COP(=O)(O)OP(=O)(O)OC[C@H]3O[C@@H](n4cnc5c(N)ncnc54)[C@H](OP(=O)(O)O)[C@@H]3O)[C@@H](O)[C@H]2O)C=CC1
Briefly: purified protein. Particulars: reductive carboxylation, 20 mM pyruvate, 50 mM NaHCO3, 5 mM MgCl2, 50 mM KCl, 100 mM Tris-HCl pH 7.8, 37°C, varied: cofactor. In kind it is biochemical, Bacillus subtilis.

Substrate in data set [3]: CC(=O)C(=O)O
Briefly: purified protein. It is filed as biochemical, Bacillus subtilis. Particulars: reductive carboxylation, NADH and NADPH both added at 0.2 mM, 50 mM NaHCO3, 5 mM MgCl2, 50 mM KCl, 100 mM Tris-HCl pH 7.8, 37°C.

Take `O=C(O)C[C@H](O)C(=O)O` [malate]: the “flow-injection TOF MS, lactate formation (malolactic activity)” value in data set [1] is given as “we observed lactate production and, thus, malolactic activity by MaeB”.

B1: YtsJ (Bacillus subtilis subsp. subtilis str. 168) (protein)
chain: MSLREEALHLHKVNQGKLESKSKVEVRNAKDLSLAYSPGVAEPCKDIHEDINKVYDYTMKGNMVAVVTDGTAVLGLGNIGPEAALPVMEGKAVLFKSFAGVDAFPIALNTNDVDKIVETVKLLEPTFGGVNLEDIAAPNCFIIEERLKKETNIPVFHDDQHGTAIVTVAGLVNALKLSGKSMSSIKVVANGAGAAGIAIIKLLHHYGVRDIVMCDSKGAIYEGRPNGMNDVKNEVAKFTNQDRKDGSLKDVIVDADVFIGVSVAGALTKEMVQSMAKDPIIFAMANPNPEIMPEDAREAGASVVGTGRSDFPNQVNNVLAFPGIFRGALDVRATHINEEMKIAAVEAIASLVSEDELSADYVIPAPFDKRVAPAVAKAVAKAAMETGVARITVDPEEVAEKTRKLTIIGE
notes: His6-tagged, overexpressed in E. coli (QIAexpress), Ni-NTA purified, tag kept
One may read the Km as the substrate concentration at which the rate is half of its maximum. Consider B1, for which the Km in data set [2] turned out to be 0.8 ± 0.5 mM; in data set [3], 5.3 ± 1.3 mM.
